From patent US20230049152A1 (Genentech, published 2023)
Where a chain is given by its changes, count along the chain named.

T1: human CCR4 (human, UniProt P51679 1-360)
T1 construct: whole, on cells; transiently expressed on HEK293 cells
T1 sequence (looked up): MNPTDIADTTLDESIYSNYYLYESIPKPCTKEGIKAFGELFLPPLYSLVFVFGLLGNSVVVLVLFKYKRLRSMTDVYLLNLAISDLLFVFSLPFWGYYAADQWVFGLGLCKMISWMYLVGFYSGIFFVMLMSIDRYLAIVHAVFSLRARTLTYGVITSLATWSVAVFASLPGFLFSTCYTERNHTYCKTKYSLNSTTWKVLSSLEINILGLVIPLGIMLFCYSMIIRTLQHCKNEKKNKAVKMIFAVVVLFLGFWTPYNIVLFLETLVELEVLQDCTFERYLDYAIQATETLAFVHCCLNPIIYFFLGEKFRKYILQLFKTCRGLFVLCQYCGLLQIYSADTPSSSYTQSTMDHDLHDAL

T2: human CCR3 (human, UniProt P51677 1-355)
T2 construct: whole, on cells; transiently expressed on HEK293 cells
T2 sequence (looked up): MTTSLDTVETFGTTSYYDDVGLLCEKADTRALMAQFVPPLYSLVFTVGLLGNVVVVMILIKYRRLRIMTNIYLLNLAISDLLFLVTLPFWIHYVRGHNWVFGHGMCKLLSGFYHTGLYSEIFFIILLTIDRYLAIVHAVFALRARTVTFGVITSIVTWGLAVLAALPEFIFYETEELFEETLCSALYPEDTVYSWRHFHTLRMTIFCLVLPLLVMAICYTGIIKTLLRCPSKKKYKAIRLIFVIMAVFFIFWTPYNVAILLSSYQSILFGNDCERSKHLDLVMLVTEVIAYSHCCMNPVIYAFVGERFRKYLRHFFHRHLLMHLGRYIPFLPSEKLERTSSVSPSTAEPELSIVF

B1: hu.Ab4.H1L1 (antibody, human IgG1, kappa)
heavy: not shown
light: DYQMTQSPSSLSASVGDRVTITCQASQSISSYLSWYQQKPGKRPKLLIYKASTLASGVPSRFSGSGSGTDFTLTISSLQPEDFATYYCQQGYTSSNIDNIFGGGTKVEIKRTVAAPSVFIFPPSDEQLKSGTASVVCLLNNFYPREAKVQWKVDNALQSGNSQESVTEQDSKDSTYSLSSTLTLSKADYEKHKVYACEVTHQGLSSPVTKSFNRGEC
notes: also called hu.Ab4.H1Ll
B2: hu.Ab4.H12L3 (antibody, human IgG1, kappa)
heavy: not shown
light: B1 light with R43A
notes: fucosylated human IgG1; also called huCCR8-Ab4.H12L3.hIgG1; Ab4 variant
B3: hu.Ab5.H1L1 (antibody, human IgG1, kappa)
heavy: not shown
light: DIQVTQSPSSLSASVGDRVTITCQASENIANALAWYQQKPGKPPKFLIYGASNLASGVPSRFSGSGSGTDFTFTISSLQPEDIATYYCQQAYYGNSFVEGTFGGGTKVEIKRTVAAPSVFIFPPSDEQLKSGTASVVCLLNNFYPREAKVQWKVDNALQSGNSQESVTEQDSKDSTYSLSSTLTLSKADYEKHKVYACEVTHQGLSSPVTKSFNRGEC
B4: hu.Ab5.H13L1 (antibody, human IgG1, kappa)
heavy: not shown
light: B3 light
notes: fucosylated human IgG1; also called Ab5 variant

Experiments:
[1] = target: T3, human CCR8 (human, UniProt P51685 1-355); assay: cell-based or functional assay
[2] = target: T3, human CCR8; assay: cell-based or functional assay; remark: listed apart in the source
[3] = target: T4, cyno CCR8 (cynomolgus monkey, UniProt O97665 1-356 (rhesus entry)); assay: radioligand competition, 125I-labelled IgG versus unlabelled IgG on CHO cells stably expressing cyno CCR8
T4 construct: also called cynomolgus monkey CCR8
T4 sequence (O97665 other isoform, or with tags, fused parts or gaps): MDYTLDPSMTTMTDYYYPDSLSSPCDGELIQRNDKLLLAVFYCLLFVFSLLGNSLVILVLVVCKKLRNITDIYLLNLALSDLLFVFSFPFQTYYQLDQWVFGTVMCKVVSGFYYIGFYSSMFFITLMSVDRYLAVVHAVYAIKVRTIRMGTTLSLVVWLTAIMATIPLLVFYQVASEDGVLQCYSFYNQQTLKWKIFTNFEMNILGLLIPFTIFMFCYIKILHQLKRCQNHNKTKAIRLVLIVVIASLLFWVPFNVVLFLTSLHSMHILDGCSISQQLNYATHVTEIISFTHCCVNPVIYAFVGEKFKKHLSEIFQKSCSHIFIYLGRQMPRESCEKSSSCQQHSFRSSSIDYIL
Experimental: (§1) Cell-based affinity measurements were performed using radiolabeled IgGs and CHO cell lines stably expressing human or cyno CCR8 for hu.Ab5.H13L1 and hu.Ab4.H12L3.
(§2) Briefly, stable CHO cells expressing human or cyno CCR8 were seeded in cold binding buffer (Opti-MEM+2% FBS+50 mM HEPES, pH 7.2+0.1% Sodium Azide) at 50,000 cells per well. A fixed concentration of ¹²⁵I-anti-CCR8 radiolabeled using the NEX244 Iodogen method (Perkin Elmer) was mixed with serially diluted anti-CCR8 antibodies starting at 20 nM or 50 nM. The antibody mixture was added to the cells and incubated at room temperature for 12 hours under gentle agitation. The cells and antibodies were then transferred to Millipore multiscreen filter plates. The filter plates were washed 4 times with 250 μL of cold binding buffer and dried for at least 30 minutes and the filters were punched into 5 mL polystyrene tubes. The radioactivity was measured using a Perkin Elmer Wallac Wizard 2470 Gamma Counter set at 1 count per minute with 0.8 counting efficiency. The data were fitted using the heterologous one site-fit Ki competitive binding model in GraphPad Prism.

[4] = target: T1, human CCR4; assay: flow cytometry, HEK293 with N-term FLAG-tagged human CCR4, procedure of FIG. 4
Description: (§3) To confirm the selectivity to CCR8, the binding of hu.Ab3.H1L1, hu.Ab4.H1L1, and hu.Ab5.H1L1, as well as the Yoshida humanized anti-human CCR8, murine anti-human CCR8 mAb L263G8 (Biolegend, Commercial Ab) and murine anti-human CCR8 mAb 433H (BD Biosciences, Commercial Ab), were characterized by flow cytometry on HEK293 cells that were transiently transfected with plasmids encoding for FLAG-tagged other related human GPCRs (CCR2-5, CXCR4, ACKR2, and ACKR4). Cell surface expression of each GPCR was confirmed by staining with an anti-FLAG antibody control. In particular, HEK293 cells were transfected with N-term FLAG-tagged human CCR2, CCR3, CCR4, CCR5, CXCR4, ACKR2, ACKR4, hCCR8 constructs, or with a Mock construct using transIT X2 (reagent:DNA=3:1) for 24 hours, and surface stained with various anti-hCCR8 monoclonal antibodies at 5 ug/ml, or rabbit anti-Flag pAb (Sigma) followed by AF647-anti-hIgG or AF647-anti-RbIgG respectively. Antibodies hu.Ab4.H1L1, and hu.Ab5.H1L1, only stained the hCCR8-containing cells, confirming their specificity to hCCR8. […] Thus, the CCR8 selective hu.Ab4.H1L1 and hu.Ab5.H1L1 antibodies with the best ADCC activities were carried forward.
(§4) To reconfirm that the Ab4 and Ab5 variants remained selective to CCR8 compared to the corresponding HIL1 variants, binding was analyzed by flow cytometry following the procedure as described for FIG. 4A and FIG. 4B. […]

[5] = target: T3, human CCR8; assay: radioligand competition on CHO cells stably expressing human CCR8: fixed 125I-anti-CCR8 against serially diluted unlabelled antibody
Experimental: as §1, §2

[6] = target: T3, human CCR8; assay: radioligand competition, 125I-labelled IgG versus unlabelled IgG on CHO cells stably expressing human CCR8
Experimental: as §1, §2

[7] = target: T2, human CCR3; assay: flow cytometry, HEK293 with N-term FLAG-tagged human CCR3, procedure of FIG. 4
Description: as §3, §4

[8] = target: T5, GST-FcgR3a.F158 (UniProt P08637 17-208, limits assumed); assay: ELISA, GST-FcgR3a.F158 captured by anti-GST antibody
T5 construct: Captured by anti-GST antibody on ELISA plate; also called FcgR3a.F158 protein; Fcgamma RIIIa F158; not shown: GST tag
T5 sequence (P08637 17-208 limits assumed): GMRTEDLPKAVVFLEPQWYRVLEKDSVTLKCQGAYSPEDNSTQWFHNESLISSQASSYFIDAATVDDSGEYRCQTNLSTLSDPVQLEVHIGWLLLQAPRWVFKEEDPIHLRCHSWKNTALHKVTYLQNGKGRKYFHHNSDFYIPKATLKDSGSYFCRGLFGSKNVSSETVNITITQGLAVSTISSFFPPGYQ
Experimental: The binding of fucosylated and afucosylated variants of hu.Ab5.H13L1 and hu.Ab4.H12L3 to both FcgR3a proteins by ELISA was studied. Briefly, an anti-GST antibody was coated on Nunc Maxisorp plates. GST-FcgR3a.V158 and GST-FcgR3a.F158 were captured at 500 ng/mL. Plates were then washed and then serially diluted anti-CCR8 antibodies starting at 100 ug/mL were incubated on the plate for 1 hour at room temperature. Plates were washed and bound antibody was detected by a HRP-conjugated anti-human IgG secondary antibody. Absorbance at 450 nm was measured by a plate reader. The data were fitted using a 4-parameter logistic curve in Softmax Pro.

| Binder | ADCC EC50, NK-92_F158 effector cells, calcein release [1] [nM] | ADCC EC50, NK-92 F158 cells (FIG. 11A) [2] [nM] | ADCC EC50, NK-92 V158 cells (FIG. 11B) [2] [nM] | Kd [3] [nM] | binding result [4] | IC50 (read off the curve) [5] [nM] | Kd [6] [nM] | binding result [7] | EC50 [8] [µg/mL] |
| --- | --- | --- | --- | --- | --- | --- | --- | --- | --- |
| B1 | 0.08 | – | – | – | – | – | – | – | – |
| B2 | – | 0.27 | 0.21 | 0.0243 | no binding (tested: 5 ug/ml) | ~0.1 | 0.0284 | no binding (tested: 5 ug/ml) | 3.74 |
| B3 | 0.02 | – | – | – | – | – | – | – | – |
| B4 | – | 0.14 | 0.094 | 0.0034 | no binding (tested: 5 ug/ml) | ~0.05 | 0.004 | no binding (tested: 5 ug/ml) | 4.11 |
